Results as given in the supplement of paper PMC10567573.

B1: FCHSD1 (parent)
chain: LQEPGVFSPTPPQQFQPAGTDQVC
B2: CLCN6 (parent)
chain: VGEIVGIITRHNLTYEFLQARLRQ
B3: MMP1 (parent)
chain: FVRGDHRDNSPFDGPGGNLAHAFQ

Variants of: B1
Assay: protein stability index of a GFP-peptide fusion (GPS, HEK-293T) (PSI 1-6); higher = more stable
Details: c terminus: a fixed tail appended
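Further: lentivirally expressed fusions sorted by FACS into six bins by GFP to DsRed ratio, PSI derived from sequencing read proportions per bin multiplied by bin number.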

Protein stability index of substitutions, site by site:
S8: W 3.85; R 4.57
Q13: N 4.11; Y 3.74; C 4.04; I 3.6; M 3.96; F 3.8; G 3.89; K 3.78; D 4.55; S 4.16; R 4.07; V 4.26; W 3.17; E 3.75
F15: C 4.17; G 4.68
Q22: W 2.94
P11: I 4.04; K 3.62; L 3.89; N 4.38; S 3.73; T 4.31; E 4.69; R 3.9; V 4.43; A 4.41; C 2.16; F 3.49; H 4.09; D 4.5; Q 4.26; G 4.25; W 3.41; M 4.17; Y 3.65
A18: W 2.99
Q16: L 3.93
T20: L 3.61
T10: Q 4.21; I 3.65; F 3.5; W 3.35; Y 3.38; G 4.16; M 3.82; C 3.52; N 3.98; R 3.54; K 4; A 4.56; E 4.38; L 4.16; D 4.67; H 4.17; V 3.96; S 4.34
P12: H 4.23; E 4.82; N 4.33; K 4.05; W 3.5; I 4.11; Q 4.45; S 4.46; V 3.69; G 4.5; R 4.33; D 5.07; F 3.48; M 4.09; Y 3.66; L 3.96; C 4.02
P9: V 4.3; D 4.69; C 4.26; R 4.26; M 4.38; K 4.31; H 4.29; Q 4.65; I 4.03; T 4.69; A 4.57; Y 3.81; L 4.56; S 4.14; N 4.04; W 3.67; G 4.38; E 4.7; F 4.14
Q14: G 2.86; V 4.1

Variants of: B2
Assay: as above
Details: c terminus: a fixed tail appended

Protein stability index, by site and new letter:
A20: Y 1.04
R23: V 5.95; Q 1.69; P 1.86; Y 4.23; E 1.2; F 2.58; H 1.73
L22: Y 2.44; Q 2.07; H 1.93; N 1.15; S 2.58; M 2.37; P 1.53; K 1.93; R 2.47; V 3.2; W 2.32; E 1.04; D 1.51
Q24: K 1.61; S 2.53; A 4.07; R 1.88; E 3.09; V 2.87; N 2.8; C 3.27; P 2.15; Y 2.14
R21: N 2.01; D 2.76; G 1.89; V 1.67; Y 1.86; T 2.69; K 1.06; W 2.19; Q 2.57

Variants of: B3
Assay: as above
Details: c terminus: a fixed tail appended

Protein stability index of substitutions, site by site:
V2: F 2.61; C 1.63; I 1.92; H 2.37; M 3.03; K 3.1; G 3.03; E 3.97; A 1.66; L 3.03; D 3.58
F1: A 3.67; H 3.28; L 3.52; K 3.56; R 3.36; C 2.64; G 3.33; N 3.66; Y 1.81; M 3.32; Q 4.01; V 2.83; S 3.33; W 2.48; P 3.59; E 3.97; D 4.41; I 2.82; T 3.78
